# Laboratory results reported in patent US20210187071A1, “COMPOSITIONS COMPRISING MDA-7/IL-24 PROTEIN AND METHODS OF USE” (VIRGINIA COMMONWEALTH UNIVERSITY, priority 2017, published 2021).
# Tested on: bone marrow cells
# Assay: Osteoclast differentiation of bone marrow cells isolated from treated PC3-ML tumor bearing animals (TRAP staining, TRACP assay)
# Assay type: in vivo, mice
# Settings: MDA-7/IL-24 protein 5 mg/kg, 6 doses; differentiation induced ex vivo
# Protocol: Osteoclast Formation Assays: Bone marrow cells were induced for osteoclast differentiation using previously described protocols (28). Briefly, bone marrow cells were cultured in minimal essential medium (α-MEM) with 10% fetal bovine serum with MCSF (10 ng/ml) for 24 hrs. They were subsequently treated with RANKL (100 ng/ml) for 5 days. Cultured cells were fixed and stained for TRAP (Tartarate-resistant acid phosphatase). TRAP staining was performed following the specific protocol provided with the kit (Sigma-Aldrich, Inc. St. Louis, Mo., USA). Multinucleated cells, considered as differentiated osteoclasts, were counted manually under bright field microscope. TRACP enzymatic assays were done as per the manufacturer's instructions (R & D, Minneapolis, Minn., USA).
# This was quantified by counting the number of osteoclasts (FIG. 2D) and also measuring TRACP osteoclastic enzymatic activity (FIG. 2E). These initial results indicated a potential function of MDA-7/IL-24 in regulating osteoclast differentiation.
# Suppression of osteoclast differentiation was also evaluated using an in vivo metastatic model (FIG. 4C). Bone marrow cells were isolated after sacrifice of mice and osteoclast differentiation was induced. […] This was evident by counting osteoclasts (FIG. 4C) and also by measuring TRACP osteoclastic enzymatic activity (FIG. 4D).
molecule,measurement,value
MDA-7/IL-24 protein: Recombinant His-tagged MDA-7/IL-24 protein purified on Ni-NTA from supernatant of IM-PHFA cells infected with Ad.5-His-mda-7 (protein) QEFHFGPCQVKGVVPQKLWEAFWAVKDTMQAQDNITSARLLQQEVLQNVSDAESCYLVHTLLEFYLKTVFKNYHNRTVEVRTLKSFSTLANNFVLIVSQLQPSQENEMFSIRDSAHRRFLLFRRAFKQLDVEAALTKALGEVDILLTWMQKFYKL,number of osteoclasts from bone marrow of treated animals,significantly fewer osteoclasts
same,osteoclastic activity of bone marrow from treated animals,less osteoclastic activity
